Measurements as given in article PMC3405907.

Experiments:
[1] = molecular target: capsid shell protein (CSP) of cytoplasmic polyhedrosis virus (cytoplasmic polyhedrosis virus (CPV)); assay: cryo-EM structure
[2] = molecular target: turret protein (TP) of cytoplasmic polyhedrosis virus (cytoplasmic polyhedrosis virus (CPV)); assay: cryo-EM structure

Substance	stoichiometry N [1]	stoichiometry N [2]
capsid shell protein (CSP) of cytoplasmic polyhedrosis virus (natural protein)	120	
turret protein (TP) of cytoplasmic polyhedrosis virus (enzyme)		5
